From US20220017622A1 (Pfizer, published 2022)

B1: B7-H4xCD3 bispecific antibody 1169 (bispecific antibody, IgG2)
heavy 1: EVQLLESGGGLVQPGGSLRLSCAASGFTFSSYAMSWVRQAPGKGLEWVSAISGGGGSTYYADSVKGRFTISRDNSKNTLYLQMNSLRAEDTAVYYCARDIQWYGESTLFDYWGQGTLVTVSSASTKGPSVFPLAPCSRSTSESTAALGCLVKDYFPEPVTVSWNSGALTSGVHTFPAVLQSSGLYSLSSVVTVPSSNFGTQTYTCNVDHKPSNTKVDKTVERKCEVECPECPAPPVAGPSVFLFPPKPKDTLMISRTPEVTCVVVAVSHEDPEVQFNWYVDGVEVHNAKTKPREEQFNSTFRVVSVLTVVHQDWLNGKEYKCKVSNKGLPSSIEKTISKTKGQPREPQVYTLPPSREEMTKNQVSLTCEVKGFYPSDIAVEWESNGQPENNYKTTPPMLDSDGSFFLYSKLTVDKSRWQQGNVFSCSVMHEALHNHYTQKSLSLSPG
light 1: DIQMTQSPSSLSASVGDRVTITCRASQSTRSWLAWHQQKPGKAPKLLIYKASSLESGVPSRFSGSGSGTDFTLTISSLQPEDFATYYCQQYGSYSRTFGQGTKVEIKRTVAAPSVFIFPPSDEQLKSGTASVVCLLNNFYPREAKVQWKVDNALQSGNSQESVTEQDSKDSTYSLSSTLTLSKADYEKHKVYACEVTHQGLSSPVTKSFNRGEC
heavy 2: EVQLVESGGGLVQPGGSLRLSCAASGFTFSDYYMTWVRQAPGKGLEWVAFIRNQARGYTSDHNPSVKGRFTISRDNAKNSLYLQMNSLRAEDTAVYYCARDRPSYYVLDYWGQGTTVTVSSASTKGPSVFPLAPCSRSTSESTAALGCLVKDYFPEPVTVSWNSGALTSGVHTFPAVLQSSGLYSLSSVVTVPSSNFGTQTYTCNVDHKPSNTKVDKTVERKCRVRCPRCPAPPVAGPSVFLFPPKPKDTLMISRTPEVTCVVVAVSHEDPEVQFNWYVDGVEVHNAKTKPREEQFNSTFRVVSVLTVVHQDWLNGKEYKCKVSNKGLPSSIEKTISKTKGQPREPQVYTLPPSREEMTKNQVSLTCLVKGFYPSDIAVEWESNGQPENNYKTTPPMLDSDGSFFLYSRLTVDKSRWQQGNVFSCSVMHEALHNHYTQKSLSLSPGK
light 2: DIQMTQSPSSLSASVGDRVTITCTSSQSLFNVRSQKNYLAWYQQKPGKAPKLLIYWASTRESGVPSRFSGSGSGTDFTLTISSLQPEDFATYYCKQSYDLFTFGGGTKVEIKRTVAAPSVFIFPPSDEQLKSGTASVVCLLNNFYPREAKVQWKVDNALQSGNSQESVTEQDSKDSTYSLSSTLTLSKADYEKHKVYACEVTHQGLSSPVTKSFNRGEC
notes: Chains 1-2: B7-H4 arm; chains 3-4: CD3 arm; IgG2
B2: B7-H4xCD3 bispecific antibody 1133 (bispecific antibody, IgG2)
heavy 1: EVQLVESGGGLVQPGGSLRLSCAVSGGSFSGYYWNWIRQPPGKGLEWIGEINHSGSATYNPSLKSRVTISVDTAKNSLYLQMNSLRAEDTAVYYCARGLYNWNVDHWGQGTLVTVSSASTKGPSVFPLAPCSRSTSESTAALGCLVKDYFPEPVTVSWNSGALTSGVHTFPAVLQSSGLYSLSSVVTVPSSNFGTQTYTCNVDHKPSNTKVDKTVERKCEVECPECPAPPVAGPSVFLFPPKPKDTLMISRTPEVTCVVVAVSHEDPEVQFNWYVDGVEVHNAKTKPREEQFNSTFRVVSVLTVVHQDWLNGKEYKCKVSNKGLPSSIEKTISKTKGQPREPQVYTLPPSREEMTKNQVSLTCEVKGFYPSDIAVEWESNGQPENNYKTTPPMLDSDGSFFLYSKLTVDKSRWQQGNVFSCSVMHEALHNHYTQKSLSLSPG
light 1: DIQMTQSPSSLSASVGDRVTITCRASQGIRNDLGWYQQKPGKAPKRLIYAASSLQSGVPSRFSGSGSGTDFTLTISSLQPEDFATYYCLQHNAYPRTFGGGTKVEIKRTVAAPSVFIFPPSDEQLKSGTASVVCLLNNFYPREAKVQWKVDNALQSGNSQESVTEQDSKDSTYSLSSTLTLSKADYEKHKVYACEVTHQGLSSPVTKSFNRGEC
heavy 2: EVQLVESGGGLVQPGGSLRLSCAASGFTFSDYYMTWVRQAPGKGLEWVAFIRNQARGYTSDHNPSVKGRFTISRDNAKNSLYLQMNSLRAEDTAVYYCARDRPSYYVLDYWGQGTTVTVSSASTKGPSVFPLAPCSRSTSESTAALGCLVKDYFPEPVTVSWNSGALTSGVHTFPAVLQSSGLYSLSSVVTVPSSNFGTQTYTCNVDHKPSNTKVDKTVERKCRVRCPRCPAPPVAGPSVFLFPPKPKDTLMISRTPEVTCVVVAVSHEDPEVQFNWYVDGVEVHNAKTKPREEQFNSTFRVVSVLTVVHQDWLNGKEYKCKVSNKGLPSSIEKTISKTKGQPREPQVYTLPPSREEMTKNQVSLTCLVKGFYPSDIAVEWESNGQPENNYKTTPPMLDSDGSFFLYSRLTVDKSRWQQGNVFSCSVMHEALHNHYTQKSLSLSPGK
light 2: DIQMTQSPSSLSASVGDRVTITCTSSQSLFNVRSQKNYLAWYQQKPGKAPKLLIYWASTRESGVPSRFSGSGSGTDFTLTISSLQPEDFATYYCKQSYDLFTFGGGTKVEIKRTVAAPSVFIFPPSDEQLKSGTASVVCLLNNFYPREAKVQWKVDNALQSGNSQESVTEQDSKDSTYSLSSTLTLSKADYEKHKVYACEVTHQGLSSPVTKSFNRGEC
notes: as for B1
B3: B7-H4xCD3 bispecific antibody 1170 (bispecific antibody, IgG2)
heavy 1: EVQLLESGGGLVQPGGSLRLSCAASGFTFSSYAMSWVRQAPGKGLEWVSAISGGGGSTYYADSVKGRFTISRDNSKNTLYLQMNSLRAEDTAVYYCARDIQWYGESTLFDYWGQGTLVTVSSASTKGPSVFPLAPCSRSTSESTAALGCLVKDYFPEPVTVSWNSGALTSGVHTFPAVLQSSGLYSLSSVVTVPSSNFGTQTYTCNVDHKPSNTKVDKTVERKCEVECPECPAPPVAGPSVFLFPPKPKDTLMISRTPEVTCVVVAVSHEDPEVQFNWYVDGVEVHNAKTKPREEQFNSTFRVVSVLTVVHQDWLNGKEYKCKVSNKGLPSSIEKTISKTKGQPREPQVYTLPPSREEMTKNQVSLTCEVKGFYPSDIAVEWESNGQPENNYKTTPPMLDSDGSFFLYSKLTVDKSRWQQGNVFSCSVMHEALHNHYTQKSLSLSPG
light 1: DIQMTQSPSSLSASVGDRVTITCRASQSTRSWLAWLQQKPGKAPKLLIYKASSLESGVPSRFSGSGSGTDFTLTISSLQPEDFATYYCQQYGSYSRTFGQGTKVEIKRTVAAPSVFIFPPSDEQLKSGTASVVCLLNNFYPREAKVQWKVDNALQSGNSQESVTEQDSKDSTYSLSSTLTLSKADYEKHKVYACEVTHQGLSSPVTKSFNRGEC
heavy 2: EVQLVESGGGLVQPGGSLRLSCAASGFTFSDYYMTWVRQAPGKGLEWVAFIRNQARGYTSDHNPSVKGRFTISRDNAKNSLYLQMNSLRAEDTAVYYCARDRPSYYVLDYWGQGTTVTVSSASTKGPSVFPLAPCSRSTSESTAALGCLVKDYFPEPVTVSWNSGALTSGVHTFPAVLQSSGLYSLSSVVTVPSSNFGTQTYTCNVDHKPSNTKVDKTVERKCRVRCPRCPAPPVAGPSVFLFPPKPKDTLMISRTPEVTCVVVAVSHEDPEVQFNWYVDGVEVHNAKTKPREEQFNSTFRVVSVLTVVHQDWLNGKEYKCKVSNKGLPSSIEKTISKTKGQPREPQVYTLPPSREEMTKNQVSLTCLVKGFYPSDIAVEWESNGQPENNYKTTPPMLDSDGSFFLYSRLTVDKSRWQQGNVFSCSVMHEALHNHYTQKSLSLSPGK
light 2: DIQMTQSPSSLSASVGDRVTITCTSSQSLFNVRSQKNYLAWYQQKPGKAPKLLIYWASTRESGVPSRFSGSGSGTDFTLTISSLQPEDFATYYCKQSYDLFTFGGGTKVEIKRTVAAPSVFIFPPSDEQLKSGTASVVCLLNNFYPREAKVQWKVDNALQSGNSQESVTEQDSKDSTYSLSSTLTLSKADYEKHKVYACEVTHQGLSSPVTKSFNRGEC
notes: as for B1

Assays:
human B7-H4 on cells [1] = target: T1, human B7-H4 on cells (human, UniProt Q7Z7D3 25-282); assay: cell-based or functional assay
T1 sequence (looked up): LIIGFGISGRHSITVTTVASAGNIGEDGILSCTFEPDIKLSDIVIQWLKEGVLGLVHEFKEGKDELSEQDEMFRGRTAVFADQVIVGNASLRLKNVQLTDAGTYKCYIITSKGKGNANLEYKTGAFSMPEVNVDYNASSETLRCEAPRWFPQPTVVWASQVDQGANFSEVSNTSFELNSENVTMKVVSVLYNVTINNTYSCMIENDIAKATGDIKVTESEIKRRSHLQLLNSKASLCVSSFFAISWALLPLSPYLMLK

human B7-H4 on cells [2] = target: T1, human B7-H4 on cells; assay: flow cytometry on MX-1 cells, 37 C
[3] = target: T2, human CD3 on primary human T cells (human, UniProt P07766 23-207; P04234 22-171); assay: flow cytometry on primary human T cells, 37 C
T2 construct: whole, on cells; On cells the whole CD3/TCR complex is present
T2 sequence (P07766 23-207, chain 1 of 2): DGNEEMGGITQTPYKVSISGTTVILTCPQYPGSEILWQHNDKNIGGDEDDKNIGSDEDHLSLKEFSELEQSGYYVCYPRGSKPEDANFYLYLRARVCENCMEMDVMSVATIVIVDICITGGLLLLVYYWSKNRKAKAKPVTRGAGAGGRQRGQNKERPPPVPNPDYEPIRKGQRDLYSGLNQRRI
T2 sequence (P04234 22-171, chain 2 of 2): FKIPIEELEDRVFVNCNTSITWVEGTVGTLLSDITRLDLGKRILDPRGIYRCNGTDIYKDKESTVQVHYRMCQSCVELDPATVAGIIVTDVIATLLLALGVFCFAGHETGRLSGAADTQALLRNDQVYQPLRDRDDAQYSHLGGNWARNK
For T cell mediated tumor cell killing, OVCAR3-Luc in this document: unit not given here.
For T cell mediated tumor cell killing, T47D in this document: unit not given here.

| Binder | T cell mediated tumor cell killing EC50, HCC1954-Luc (human B7-H4 on cells [1]) [nM] | T cell mediated tumor cell killing, OVCAR3-Luc (human B7-H4 on cells [1]) | T cell mediated tumor cell killing, T47D (human B7-H4 on cells [1]) | EC50 (human B7-H4 on cells [2]) [nM] | EC50 [3] [nM] |
| --- | --- | --- | --- | --- | --- |
| B1 | 975 | 190 | 818 | 10 | 5.22 |
| B2 | 790 |  | 2810 | 1.47 | 5.73 |
| B3 | 595 | 130 | 444 | 6.88 | 5.51 |
